{"source": "the DeepSol protein solubility set", "data": [{"assay": "soluble on expression in E. coli; label from the status in PepcDB or PDB records", "values": [{"sequence": "MHHHHHHSSGLVPRGSGMKETAAAKFERQHMDSPDLGTDDDDKAMADIGSEFMSTYHERPLGPASAAEWFRQRSYDYGQFPPEDLARRKRELGLTVSAVLPSRNVADTVGGIIDEIHALNERAPLIDQILVVDADSEDGTAGVAASHGAEVYSENELMSGYGDAHGKGDAMWRALSVTRGDLVLYIDADTRDFRPQLAYGVLGPVLEVPGVRFVKAAYRRPFRKGESIEEDGGGRVTELTAKPLFNLFYPELAGFVQPLAGEFVADRELFCSIPFLTGYAVETGIMIDVLKKVGLGAMAQVDLGERQNRHQHLRDLSRMSYAVVRAVARRLRQEGRLQQLREPGLPESFFQLSDYLHAVATPEGLKLQEYVEELVERPPINEVLRVR", "soluble on expression in E. coli": "soluble"}, {"sequence": "RTDNLGLAPYGRVDLSGGSFGTFRRSVKLGSGRIGRHWAVDARLSKIGSDGYVDRGSVDLKSYFAQVGYFGSNTALRFITFGGKEVTGIAWNGLSKEDEAKYGRRYNSAGLMYVDAQGVPHYYHNTDNYEQRHYHAIMTHSFSPSVILNLTAHYTAGYGYTDEYRTGRKLKEYALQPYVENSVTVKKTDLIRQKYLDNDFGGLIGSLNWHTGAWDLQFGASGNIYKGDHFGRITYIKKYNQPLAPDFEYYRNRADKREGAAFAKANWQITPELNMYADLQYRTIGYTINGITDEYDEVQGSMQHIDLDKTFRFLNPKAGLTYSFDDAHTAYASVAVAHREPNRTNYTEAGIGQYPTPERLIDYELGYRYASPLLSAGVGLYYMQYKDQLVLDGRLSDVGQMLTSNVPDSYRMGLELTLGWQILPRLLRWDASFTMSRNKIDRYVQYTSVYDADYNWLELKEETLESTDIAYSPNVIAGSMLTLSHAGFEMAWTSRFVSKQYLDNTQRSDRMLSSYWVNDLRLGYVLPVHFVKRVALGVQLNNLFNLMYASNAYIYDAGYVQASGELSAYADLRYYPQAGFNALGSLTIDF", "soluble on expression in E. coli": "not soluble"}, {"sequence": "MDNMKRNMPYLPSFKLTDFDIKTLVQPILCPRSQEIQYYETLSKISTFAQSNINNDVFFSIIDNTFIQTLALQQIRFSLEKYPHQLHSFNIKLSCLADEDFVRELLSFHGAKFALEISELDCYTESKEIRENLSVLQANNIEIWLDDYHRNNKLANMSLGNILWDRIKIDKSFLKHADQESIQALEYFLAPFCLHGLIFEGAEYIEHHKMLKTSQSLTQGYYYFRPSPINSLDSKPRVAESIKLSYAG", "soluble on expression in E. coli": "not soluble"}, {"sequence": "MGSDKIHHHHHHMSFEVTFDGMRYSCVNCAYCCSCKNWRVFLSYFDMMRLKGYENYIEKSNSNYEHVLALRNGKCGLIENNLCRIQLEKSYDTKPAMCRLFPFSFMVKWNGDLLLILKHYCGGVQVGKCSKKTIKHAIECCEELYHDQLSEFSLDFAERSDKTSLNEKTEICWEERAELGKYFFKIKKFDSFSEKYSEIFSEDISDSIEKLKSKNSCFDEKTQKLREKETLRYMYELNKREHFRKMSFKKELDNLINVGIIIDDYKDLLKGEGAVDSKLLLN", "soluble on expression in E. coli": "not soluble"}, {"sequence": "VRQLDSDGFAALMESIPHAISVHDRERNLVFSNPACAALIGYDTAEFADLEHEQLFHPDDAELWGTMLARVLGTESTSATAHLRIRHREGHWIWVRVAASTFTAGAERLVALVLQDESDTIWGNPTAARQPIR", "soluble on expression in E. coli": "not soluble"}, {"sequence": "MSLENKETTTTTTTTNNGSDKKKRSLKIDLHTHILPKNWPNLKEKYGYGGWVSLDHHCSCKAKMMIDGKFFREIDSNCWDPDVRIQELNRDDVDIQVLSTVPVMFGYWAKPQDALDLAQYLNDHIAQVVSENPKRFIGLGSLPMQCTESSIQELRRCILELGLPGIQIGSNVNGKNLDDPSLFPIFEECEKLGAAVFIHPWEMVGKDRMPQYWLPWLVGMPAETCLAICSMIFGGVFQRLPNLKVCFAHGGGSFPFTIGRIEHGFNARPDLCAVVNPINPREYIGKFWVDSLVHDEEALKFLVNLMGEKKVTLGTDYPFPLGELVPGQLIESIKEFSETTKENLLGGNALEFLGLDPNKYLEGHHHHHH", "soluble on expression in E. coli": "soluble"}, {"sequence": "RSAEALFEKAVTPSDVGKLNRLVIPKHHAEKHFPLPSSNVSVKGVLLNFEDVNGKVWRFRYSYWNSSQSYVLTKGWSRFVKEKNLRAGDVVSFSRSNGQDQQLYIGWKSRSGSDLDA", "soluble on expression in E. coli": "soluble"}, {"sequence": "MESNFIDWHPADIIAGLRKKGTSMAAESRRNGLSSSTLANALSRPWPKGEMIIAKALGTDPWVIWPSRYHDPQTHEFIDRTQLMRSYTKPKK", "soluble on expression in E. coli": "soluble"}, {"sequence": "SSVDPMTYEAQFFGFTPQTCMLRIYIAFQDYLFEVMQAVEQVILKKLDGIPDCDISPVQIRKCTEKFLCFMKGHFDNLFSKMEQLFLQLILRIPSNILLPEDKCKETPYSEEDFQHLQKEIEQLQEKYKTELCTKQALLAELEEQKIVQAKLKQTLTFFDELHNVGRDHGTSDFRESLVSLVQNSRKLQNIRDNVEKESKRLKIS", "soluble on expression in E. coli": "soluble"}, {"sequence": "AQQAEWRSWEVNKRLEYSLVKGITEFIEQDTEEARQQATRPCEVIEGPLMDGMNVVGDLFGEGKMFLPQVVKSARVMKQAVAYLEPFIEASKEQCKTNGKMVIATVKGDVHDIGKNIVGVVLQCNNYEIVDLGVMVPAEKILRTAKEVNADLIGLSGLITPSLDEMVNVAKEMERQGFTIPLLIGGATTSKAHTAVKIEQNYSGPTVYVQNASRTVGVVAALLSDTQRDDFVARTRKEYETVRIQHGRKKPRTPPVTLEAARDNDFAFDWQAYTPPVAHRLGVQEVEASIETLRNYIDWTPFFMTWSLAGKYPRILEDEVVGVEAQRLFKDANDMLDKLSAEKTLNPRGVVGLFPANRVGDDIEIYRDETRTHVINVSHHLRQQTEKTGFANYCLADFVAPKLSGKADYIGAFAVTGGLEEDALADAFEAQHDDYNKIMVKALADRLAEAFAEYLHERVRKVYWGYAPNENLSNEELIRENYQGIRPAPGYPACPEHTEKATIWELLEVEKHTGMKLTESFAMWPGASVSGWYFSHPDSKYYAVAQIQRDQVEDYARRKGMSVTEVERWLAPNLGYDAD", "soluble on expression in E. coli": "soluble"}, {"sequence": "MKREEYLKNYLESYLRKKEVSLTEEEFNVILREFLRFAYNPEESGQEIADTADGSKTLIHKTYGEPYHSQTAGAIRESLYKFVRPSRILEKAKERKVIRILDVGFGLGYNLAVALKHLWEVNPKLRVEIISFEKELLKEFPILPEPYREIHEFLLERVPEYEGERLSLKVLLGDARKRIKEVENFKADAVFHDAFSPYKNPELWTLDFLSLIKERIDEKGYWVSYSSSLSVRKSLLTLGFKVGSSREIGRKRKGTVASLKAPVPPMEENEVRKLVLSPFAVPMRDEKLDKEPLEILIDYLLKVYKISR", "soluble on expression in E. coli": "soluble"}, {"sequence": "VDFHGYARSGIGWTGSGGEQQCFQTTGAQSKYRLGNECETYAELKLGQEVWKEGDKSFYFDTNVAYSVAQQNDWEATDPAFREANVQGKNLIEWLPGSTIWAGKRFYQRHDVHMIDFYYWDISGPGAGLENIDVGFGKLSLAATRSSEAGGSSSFASNNIYDYTNETANDVFDVRLAQMEINPGGTLELGVDYGRANLRDNYRLVDGASKDGWLFTAEHTQSVLKGFNKFVVQYATDSMTSQGKGLSQGSGVAFDNEKFAYNINNNGHMLRILDHGAISMGDNWDMMYVGMYQDINWDNDNGTKWWTVGIRPMYKWTPIMSTVMEIGYDNVESQRTGDKNNQYKITLAQQWQAGDSIWSRPAIRVFATYAKWDEKWGYDYTGNADNNANFGKAVPADFNGGSFGRGDSDEWTFGAQMEIWW", "soluble on expression in E. coli": "soluble"}, {"sequence": "MSLSNLINGKIPNQAIQTLKIVKDLFGSSIVGVYLFGSAVNGGLRINSDVDVLVVVNHSLPQLTRKKLTERLMTISGKIGNTDSVRPLEVTVINRSEVVPWQYPPKREFIYGEWLRGEFENGQIQEPSYDPDLAIVLAQARKNSISLFGPDSSSILVSVPLTDIRRAIKDSLPELIEGIKGDERNVILTLARMWQTVTTGEITSKDVAAEWAIPLLPKEHVTLLDIARKGYRGECDDKWEGLYSKVKALVKYMKNSIETSLNEGHHHHHH", "soluble on expression in E. coli": "soluble"}, {"sequence": "MRNIGIIINKEKDKENKILNLVILKVKEYLNPDEIKVIDQFYKGDYKDLMSLDLLIVLGGDGTLLGVARKFSTVIDTPILGINIGNLGFLVTAEISELDEALYRIKVGDYKVEERMLLSCTIEGVTCSEERALNDIVVARGTLSRMAQYEVFINDELYATFKGDGVIISTPVGSTAYSFSAGGPLIMPDLQIVSIVPICPHTPNSRPMIIDGNNKVRVKPLINESDVFVTIDGQKALKLEKHNEVLIKKAKEFFRIISFDNKSYFKVLRKKLFKIELEHHHHHH", "soluble on expression in E. coli": "not soluble"}, {"sequence": "MKTRITELLKIDYPIFQGGMAWVADGDLAGAVSKAGGLGIIGGGNAPKEVVKANIDKIKSLTDKPFGVNIMLLSPFVEDIVDLVIEEGVKVVTTGAGNPSKYMERFHEAGIIVIPVVPSVALAKRMEKIGADAVIAEGMEAGGHIGKLTTMTLVRQVATAISIPVIAAGGIADGEGAAAGFMLGAEAVQVGTRFVVAKESNAHPNYKEKILKARDIDTTISAQHFGHAVRAIKNQLTRDFELAEKDAFKQEDPDLEIFEQMGAGALAKAVVHGDVDGGSVMAGQIAGLVSKEETAEEILKDLYYGAAKKIQEEASRWTGVVRND", "soluble on expression in E. coli": "not soluble"}, {"sequence": "MEAEIFPGTIHLIDKPQAIPEAIRLLSASRTIGFDTETRPSFVRGARPSVALMQMSTETDCFLFRLNMIDIPEELQQLLENPGILKVGLSLSDDMTVIRRRKPIEPAGFVELQRLCPAYGIRDASLQKIYAILFGRRISKSQRLTNWEARTLTAAQQSYAALDAWACLRIFNQLMTLPTPTPVQFALL", "soluble on expression in E. coli": "not soluble"}, {"sequence": "MSLSDSENGGSKTAILCNDLADSYLESYPTVTLEDGVTRTYHNGVYQECRNKYIINNRMMDIAEDMGIVLTPKQIQDALEIVRNKTPFTESKTPINLIPVGNGVLDINTMELSDYSPETVLLTKFPRDYNPSAATPSKFMEMLNTTFDGSEEQIKLVQEMFGYCFLRSYFLEVIFFLIGNGRNGKTTLLSILGALLGGEESGHISSLSFKDLSEPKNENMLCDLYGRYANICGDTGKHKIKETDYIKKVTGNDFVRARKLYKDSFNFKSFAKVILAFNQLPEVDDFSDGFKRRIRIIEFNHKFEDGAGANKNIEAEITGDEEEMEGIFLWAMEGLKRILENNSFSDKRSIVSRGMEYARKSNPMHYFVRECIVESPGHFVNKADLIEKYVEYAEYNKMPQLTPQAFKKGLIAECTDISINTFEKRDQTKTGRPFGFMHIDIDLESWKKHTGKADNASPVEPKEDSKQTQFKELEIQIATTDEEIRKVAEDMASTASEGHHHHHH", "soluble on expression in E. coli": "soluble"}, {"sequence": "MSAPTTFSVALHNETATAQLMADLALLVGPGDVITLTGDLGAGKTAAARAMIRYLADDEALEVPSPTFTLVQGYELPPFPVMHADLYRVEDESELEEIGLSPLPDATLVLIEWPERAPSALPEDRIDIALTHRPALGSNARAADITGYGKSAAQVARLKALREFLDASGYLDAMRRRMAGDASTRSYARLLRDDEIVILMNFPQRPDGAALYNGKSYSAAVHLAENVKPFVAIDEGLRAQGISAPAIHHADLDHGFLISEDFGSEGVIEGNPPRPIPERYEAATDVLAVLHGKTLPETLPLDGQSYAIPVFDTEAMLIEIGLMPEWYLPDRNAPLSEPKRAEFFAMWRELLKKPLAAPRTWIIRDYHSPNLIWLGMRTGIERVGVIDFQDTVLGPQSYDVVSLLQDARIDVPENLELTLLSRYIKARRAGDASFDPAGFAELYAIMSAQRNTRLLGTFARLNRRDGKPHYLRHQPRIWTYLQRSLAHPALSHLRDWYLANVPPPQRPSQEPAPEPPQGLEHHHHHH", "soluble on expression in E. coli": "soluble"}, {"sequence": "SFLNGNCLETLKKKEPEGGRRRLSHPGNMGWMRPSQETTPPDRSHHSGFGLFCGDPGPEIEPFSLWVFPQEMVLEIHQLFMDHEYPCHHITSHCTWVAAHWTTSQSCAAWQGCRRACCSTWWKSPAQCTRPTVMSATFETAQEPGPS", "soluble on expression in E. coli": "soluble"}, {"sequence": "MLQCGAKNVNPLERFVSSLPVAAVLPELLAALDGASQVLLSAPTGAGKSTWLPLQLLAHPGINGKIILLEPRRLAARNVAQRLAELLNEKPGDTVGYRMRAQNCVGPNTRLEVITEGVLTRMIQRDPELSGVGLVILDEFHERSLQADLALALLLDVQQGLRDDLKLLIMSA", "soluble on expression in E. coli": "not soluble"}]}]}
